This passage reports LogEC50, Max and EC50 results from patent publication US20230416347A1.

Targets include TAL ALκ liver extract; SHI ALλ liver extract; rVλ6Wil fibrils.
What all share (assay): EuLISA
The target of test [1] is KEN hATTR extract (human) (UniProt P02766).
Test [2] deals with Per125 wtATTR extract (human) (UniProt P02766).

As for chimeric antibody c11-1F4, in test [1], the LogEC50 is -1.36 -log(M) and the Max turned out to be 19700.
A word on the EC50: it is the concentration that produces a half-maximal response. For the substance hIgG1 (antibody), the LogEC50 is 3 -log(M) with TAL ALκ liver extract; 9.06 -log(M) in test [1]; 7.88 -log(M) with SHI ALλ liver extract; 5.89 -log(M) with rVλ6Wil fibrils; 7.92 -log(M) in test [2]. The Max with TAL ALκ liver extract was 2220; in test [1] it was -0.8; in the test with SHI ALλ liver extract, 2.5; with rVλ6Wil fibrils, 39.3; in test [2], 8.38. In addition, the EC50 in the test with rVλ6Wil fibrils is 1.28 µM.
Take m11-1F4 (antibody): in test [1], the LogEC50 is 2.39 -log(M) and the Max is 294000.
